Data on one molecule can be found in patent US20050084489A1, “Methods of preventing or treating disorders by administering and integrin alphanubeta3 antagonist in combination with an HMG-CoA reductase inhibitor or a bisphosphonate” (priority 2002, published 2005).

Where a chain is given by its changes, count along the chain named.

One experiment addresses T1, mouse integrin αVβ3 (Mus musculus, UniProt O54890).
T1 sequence (O54890 26-787): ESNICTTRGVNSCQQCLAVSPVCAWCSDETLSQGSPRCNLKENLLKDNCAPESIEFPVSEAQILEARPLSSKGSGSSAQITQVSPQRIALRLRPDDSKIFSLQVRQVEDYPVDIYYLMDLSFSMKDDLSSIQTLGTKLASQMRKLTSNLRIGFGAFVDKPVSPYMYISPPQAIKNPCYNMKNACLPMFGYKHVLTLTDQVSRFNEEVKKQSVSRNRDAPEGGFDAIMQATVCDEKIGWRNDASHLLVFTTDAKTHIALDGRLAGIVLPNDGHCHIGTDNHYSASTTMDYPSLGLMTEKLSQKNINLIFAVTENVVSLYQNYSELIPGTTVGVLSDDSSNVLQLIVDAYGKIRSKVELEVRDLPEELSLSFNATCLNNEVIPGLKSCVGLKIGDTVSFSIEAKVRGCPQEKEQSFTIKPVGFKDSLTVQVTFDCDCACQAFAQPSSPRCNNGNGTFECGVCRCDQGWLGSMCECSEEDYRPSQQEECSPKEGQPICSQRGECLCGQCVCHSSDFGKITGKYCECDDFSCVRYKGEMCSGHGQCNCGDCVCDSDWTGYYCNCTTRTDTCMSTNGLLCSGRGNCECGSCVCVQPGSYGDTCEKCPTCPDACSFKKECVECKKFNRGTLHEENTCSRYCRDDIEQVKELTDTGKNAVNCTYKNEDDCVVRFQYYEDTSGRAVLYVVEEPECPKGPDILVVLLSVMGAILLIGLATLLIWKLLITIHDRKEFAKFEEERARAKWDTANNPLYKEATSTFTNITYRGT
T1 sequence (P43406 31-885 partner limits assumed): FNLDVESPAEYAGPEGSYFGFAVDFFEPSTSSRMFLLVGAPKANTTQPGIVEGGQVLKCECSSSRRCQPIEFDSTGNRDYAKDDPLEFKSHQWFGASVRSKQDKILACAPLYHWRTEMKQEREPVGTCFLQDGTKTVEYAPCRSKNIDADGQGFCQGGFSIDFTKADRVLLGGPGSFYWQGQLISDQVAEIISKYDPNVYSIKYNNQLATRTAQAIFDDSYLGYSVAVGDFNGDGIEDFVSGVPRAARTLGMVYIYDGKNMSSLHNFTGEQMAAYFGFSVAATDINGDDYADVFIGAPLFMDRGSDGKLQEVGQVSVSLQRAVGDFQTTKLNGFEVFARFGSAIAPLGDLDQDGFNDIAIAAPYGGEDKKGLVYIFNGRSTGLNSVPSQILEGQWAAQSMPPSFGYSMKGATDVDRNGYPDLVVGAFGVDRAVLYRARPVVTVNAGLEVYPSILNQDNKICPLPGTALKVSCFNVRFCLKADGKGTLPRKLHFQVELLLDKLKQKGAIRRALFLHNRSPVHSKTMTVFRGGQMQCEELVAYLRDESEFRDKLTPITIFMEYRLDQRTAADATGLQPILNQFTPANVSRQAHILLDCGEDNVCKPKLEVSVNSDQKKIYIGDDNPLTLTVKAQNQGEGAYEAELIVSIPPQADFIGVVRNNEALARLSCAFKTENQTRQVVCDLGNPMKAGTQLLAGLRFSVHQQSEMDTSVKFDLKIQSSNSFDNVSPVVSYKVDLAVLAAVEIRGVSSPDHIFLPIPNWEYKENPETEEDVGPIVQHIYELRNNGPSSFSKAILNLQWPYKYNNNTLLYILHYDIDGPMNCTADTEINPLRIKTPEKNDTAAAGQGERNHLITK
T1 sequence (P43406 887-1044 partner limits assumed): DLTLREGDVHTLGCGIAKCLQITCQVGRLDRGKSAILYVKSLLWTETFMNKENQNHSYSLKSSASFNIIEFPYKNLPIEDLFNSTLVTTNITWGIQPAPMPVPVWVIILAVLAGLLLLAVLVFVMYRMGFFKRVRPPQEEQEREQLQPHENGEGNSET
Briefly: Antibody binding to wild type mouse integrin αVβ3. From the text: (§1) The invention encompasses methods for identifying antagonists that are immunospecific for integrin αVβ3, particularly for antibodies that specifically bind to the same epitope as VITAXIN® and/or LM609. […] In certain embodiments, amino acid substitutions are made in the subunits of integrin αVβ3, for example to change the ligand specificity of the integrin αVβ3 and/or disrupt the heterodimerization of the subunit chains. Preferably the integrin αVβ3 is human. In specific embodiments, such amino acid substitutions disrupt the specific interaction of certain antagonists of integrin αVβ3 with a particular integrin αVβ3 epitope. In a preferred embodiment, the amino acid substitutions are made within regions of an integrin subunit that confers ligand binding specificity, preferably ligand binding specificity of LM609 and/or VITAXIN®, particularly residues 164-202 of human β3. Alternatively, mouse β chain residues corresponding to residues 164-202 of the human β3 chain are replaced with the residues 164-202 of the human β3 chain. Such mouse-human chimeras can be used to screen for antagonists that bind to the region 164-202 of human β3 but not to mouse integrin αVβ3.
(§2) In addition, the invention provides methods for identifying monoclonal antibodies that bind to the heterodimerized αVβ3 but not the αV or the β3 chains when not included in a heterodimer. […]

In experiment [1] the target is T2, modified mouse integrin αVβ3 (mouse-human chimera, human β chain residues 164-202) (Mus musculus, UniProt O54890, A208T/I198L/K199E/N204D/N207T/Q196E/S226T).
T2 sequence (O54890 26-787 Q196E/I198L/K199E/N204D/N207T/A208T/S226T): T1 sequence (O54890 26-787) with Q171E, I173L, K174E, N179D, N182T, A183T, S201T
T2 sequence (P43406 31-885 partner): T1 sequence (P43406 31-885 partner limits assumed)
T2 sequence (P43406 887-1044 partner): T1 sequence (P43406 887-1044 partner limits assumed)
In words: Antibody binding to modified mouse integrin αVβ3 carrying amino acids 164-202 of the human β chain. The note with it: mouse β chain region replaced with amino acids 164-202 of the human β chain.
Description: as §1, §2

Experiment [2] concerns integrin αVβ3 with mutated human β3 chain. In words: Antibody binding to integrin αVβ3 heterodimer with human β3 residues substituted with rat residues.
Description: as §1
In preferred embodiments, the amino acid substitutions are made in the β3 subunit. In certain embodiments, human β3 residues are substituted with rat residues as described in Table 2. […] Such substitutions preferred examples but not limiting. Such substituted subunits are merely exemplary and not limiting. Any integrin αVβ3 regions identified to be responsible for antibody binding can be altered with substituted, deleted or inserted residues to characterize binding specificity of various antibodies and to screen for antibodies with the same a similar binding specificity.
In addition, the invention provides methods for identifying monoclonal antibodies that bind to the heterodimerized αVβ3 but not the αV or the β3 chains when not included in a heterodimer. […] The antibodies identified from such screening methods can be useful for the prevention, management and treatment of integrin αVβ3-mediated diseases and disorders, including but not limited to inflammatory diseases, autoimmune disorders, disorders associated with aberrant expression and/or activity of integrin αvβ3, disorders associated with abnormal bone metabolism, disorders associated with aberrant angiogenesis and cancers, or a condition or symptom associated therewith. It is also contemplated that such antibodies can be used in the methods and compositions contemplated by the present invention. […]

B1: VITAXIN®: humanized monoclonal antibody MEDI-522 (MedImmune) that immunospecifically binds to integrin αVβ3; human IgG1 subclass (antibody, chains of the INN, looked up, V domains shown)
VH: QVQLVESGGGVVQPGRSLRLSCAASGFTFSSYDMSWVRQAPGKGLEWVAKVSSGGGSTYYLDTVQGRFTISRDNSKNTLYLQMNSLRAEDTAVYYCARHLHGSFASWGQGTTVTVSS
VL: EIVLTQSPATLSLSPGERATLSCQASQSISNFLHWYQQRPGQAPRLLIRYRSQSISGIPARFSGSGSGTDFTLTISSLEPEDFAVYYCQQSGSWPLTFGGGTKVEIK
Turning to B1, in the experiment with mouse integrin αVβ3, the “binding to mouse integrin αVβ3” value is recorded as “do not bind”. The “binding to modified mouse integrin αVβ3” value in experiment [1] is reported as “do bind”. Besides, the “effect of β3 mutation on antibody binding to integrin αVβ3” value in experiment [2] (Mutation A: Glu to Gln at position 171 (E171Q)) is listed as “disrupts binding”; in experiment [2] (Mutation B: Leu and Glu to Ile and Lys at positions 173 and 174 (L173I, E174K)) it was “disrupt binding”; in experiment [2] (Mutations A and C combined (three substituted residues)), “disrupts binding”. The “effect of β3 mutation on antibody binding to the integrin αVβ3 heterodimer” value in experiment [2] (mutation of residues 171, 173 and/or 174 of the human β3 chain) was “disrupt binding”.
